Assay results from US7939490.
pKd: −log10 of the molar value.

Target: Fn14-Fc fusion protein (murine Fn14 extracellular domain fused to the hinge and Fc of mouse IgG1, with myc and His tags) (murine)
Experiment: ELISA, plate coated with Fn14-Fc, serial dilutions of FLAG-tagged TWEAK

Sequence of Fn14-Fc fusion protein (murine Fn14 extracellular domain fused to the hinge and Fc of mouse IgG1, with myc and His tags) (murine) (chain, as listed by the source): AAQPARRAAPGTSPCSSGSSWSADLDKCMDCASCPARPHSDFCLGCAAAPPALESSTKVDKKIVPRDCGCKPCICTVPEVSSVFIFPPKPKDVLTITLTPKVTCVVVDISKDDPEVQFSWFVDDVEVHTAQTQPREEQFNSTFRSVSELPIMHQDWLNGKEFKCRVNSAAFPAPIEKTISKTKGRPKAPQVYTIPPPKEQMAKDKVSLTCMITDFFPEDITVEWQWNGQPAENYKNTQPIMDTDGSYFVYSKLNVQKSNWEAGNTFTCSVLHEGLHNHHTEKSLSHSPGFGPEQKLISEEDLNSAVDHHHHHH

How did the pKd turn out when FLAG epitope-tagged TWEAK (ligand) was run?
Its pKd is 8.96.
